# In article PMC10069731 (Communications Biology, 2023):
# B1: rabbit monoclonal antibody (RmAb) 1H1, IgG (antibody, V domains shown)
# VH: QSLEESGGDLVKPGASLTLTCTASGFSFSSGYDMCWVRQAPGKGLEWIACIGTGSSGNIYYASWAKGRFTISKTSSTTVTLQMTSLTAADTATYFCARDDADYAGPDYFNLWGPGTLVTVSS
# VL: DIVMTQTPASVSEPVGGTVTIKCQASESISNWLAWYQQKPGQPPKLLIYAAFTLASGVPSRFKGSGSGTQFTLTINGVECADAATYYCQQTYSSRDVDNVFGGGTEVVVK
# Key:
# [1] = target: SARS-CoV-2 Omicron BA.4/5 RBD (SARS-CoV-2 Omicron BA.4/5, strain); assay: BLI; conditions: both partners purified
# [2] = target: SARS-CoV-2 WT spike ECD, 6P-stabilized (SARS-CoV-2, WT (ancestral), UniProt P0DTC2, stabilised); assay: ELISA; conditions: both partners purified
binder,measurement,setting,value
B1,Kd,[1],1.33 nM
same,binding result,[2],binds
